In patent US20210046160A1 (Synthorx, Inc., priority 2019, published 2021):

Legend:
[1] = test system: Treg cells; test: pSTAT5 concentration-response in human LRS-derived PBMC samples (flow cytometry): Treg cells; format: cell-based; conditions: Table 4; ratio of pSTAT5 EC50 values
Description: These studies were performed at PrimityBio LLC (Fremont, Calif.). […] Staining panel for flow cytometry study of LRS-derived PBMC samples include markers for Effector T cells (Teff: CD3+, CD4+, CD8+, CD127+), NK cells (CD3-, CD16+), and Regulatory T cells (Treg: CD3+, CD4+, CD8-, IL-2Rα+, CD127-1).
The EC50 values (pg/mL) was calculated from dose response curves generated from MFI plots.
These studies were performed at PrimityBio LLC (Fremont, Calif.). […] Staining panel for flow cytometry study of LRS-derived PBMC samples include markers CD4, CD4+ memory central, CD4+ memory effect, CD4+ memory T cells, CD4+ Naive T cells, CD4+ T cells, CD8, CD8+ memory central, CD8+ memory effect, CD8+ memory T cells, CD8+ Naive T cells, CD8+ T cells, NK cells, and T regulatory cells.
Conjugates of Table 12 were synthesized by modification of SEQ NO. 1. These studies were performed at PrimityBio LLC (Fremont, Calif.).
The EC50 values (pg/ml) were calculated from dose response curves generated from the MFI plots.

[2] = PK/PD in cynomolgus monkeys, Study No. 20157276; conditions: cynomolgus monkey, 0.3 mg/kg single IV
Description: The study was conducted at Charles River Laboratories, Inc. (Reno, Nev.) and PK data analysis was performed at NW Solutions (Seattle, Wash.). […] Both plasma and blood cells were collected for PK and PD analyses. Selected time points were used for PK, PD, cell population and hematology analysis.

[3] = Plasma and tumor PK study E3826-U1803 in B16-F10 tumor-bearing C57BL/6 mice; format: in vivo
Description: (§1) Terminal blood samples were collected via cardiac puncture at the points indicated. […] Plasma and blood cells (in both studies) and tumors in study E3826-U1803 were collected for PK and PD analyses.
(§2) Bioanalysis of plasma samples was performed using a qualified human IL-2 ELISA assay (Abcam, Cambridge, UK). Concentrations of Aldesleukin, E62_30kD and P65_30kD and the internal standard in samples derived from plasma were determined using an ELISA assay. […] The PK data were imported into Phoenix WinNonlin v6.4 (Certara/Pharsight, Princeton, N.J.) for analysis. The group mean plasma concentration versus time data were analyzed with noncompartmental methods using an IV bolus administration model.
The tail end of the curves cross showing the plasma eliminates faster than the tumor (data not shown).

[4] = PK study E3826-U1704 in naïve C57BL/6 mice (human IL-2 ELISA of plasma); format: in vivo
Description: as §1, §2

[5] = MTD / toxicology study E3826-U1802 in naïve Balb/c mice (hematology, histopathology, organ weight, cytokines); format: in vivo; conditions: mouse, in vivo
Description: A dose ranging study of P65_30kD was conducted in naïve female Balb/c mice at Crown Biosciences, Inc. (San Diego, Calif.). […] Blood samples were drawn via sub mandibular vein at 8 time points (0.25, 1, 4, 12, 24, 34, 48 & 72 h).
A major of toxicity associated with high-dose aldesleukin is vascular leak syndrome and associated Cytokine Release Syndrome (CRS). […] The analysis performed was hematology, histopathology, organ weight, and cytokine analyses.

[6] = B16-F10 tumor-bearing C57BL/6 female mice, 3 mg/kg single IV dose
[7] = C57BL/6 female mice, single IV bolus 0.3 mg/kg, E62_5 kD from a separate study

**Q.** Which CD8/Treg ratio [1] does the source give for “P65_30kD: SEQ ID NO: 25: IL-2 (SEQ ID NO: 4) with P65 replaced by AzK click-conjugated to methoxy linear 30 kDa PEG [Compound P65_30kD]” here?
**A.** 2.8

**Q.** And the “AUC0-t, Animal 2705” value [2]?
**A.** 120000 ng·h/mL

**Q.** What about the “AUC0-t, Mean” value [2] of the same substance?
**A.** 121000 ng·h/mL

**Q.** What about the “CL, Animal 2699” value [2] of the same substance?
**A.** 2.47 mL/h/kg

**Q.** What about the “CL, Animal 2705” value [2] of the same substance?
**A.** 2.49 mL/h/kg

**Q.** And the “CL, Mean” value [2]?
**A.** 2.48 mL/h/kg

**Q.** And the “Cmax, Animal 2699” value [2]?
**A.** 11000 ng/mL

**Q.** What about the “Cmax, Animal 2705” value [2] of the same substance?
**A.** 11400 ng/mL

**Q.** And the “Cmax, Mean” value [2]?
**A.** 11200 ng/mL

**Q.** And the “Tmax, Animal 2699” value [2]?
**A.** 30 min

**Q.** What about the “Tmax, Animal 2705” value [2] of the same substance?
**A.** 30 min

**Q.** And the “Vss, Animal 2699” value [2]?
**A.** 0.029 L/kg

**Q.** And the “Vss, Animal 2705” value [2]?
**A.** 0.0321 L/kg

**Q.** What about the “Vss, Mean” value [2] of the same substance?
**A.** 0.0305 L/kg

**Q.** What about the “mean plasma concentrations measurable out to (post-dose)” value [2] of the same substance?
**A.** 168 h

**Q.** And the “Tmax, Mean” value ([2]; 0.3 mg/kg)?
**A.** 30 min

**Q.** And the “tumor:plasma AUC ratio” value ([3]; 1 mg/kg dose)?
**A.** 9.7%

**Q.** And the “tumor:plasma AUC ratio” value ([3]; 3 mg/kg dose)?
**A.** 8.4%

**Q.** What about the “AUC0-t, Plasma” value [3, 6] of the same substance?
**A.** 656,000 h*ng/mL

**Q.** And the “AUC0-t, Tumor” value [3, 6]?
**A.** 55200 ng·h/mL

**Q.** And the “AUCINF, Plasma” value [3, 6]?
**A.** 656,000 h*ng/mL

**Q.** What about the “AUCINF, Tumor” value [3, 6] of the same substance?
**A.** 55200 ng·h/mL

**Q.** And the “Cmax, Plasma” value [3, 6]?
**A.** 40000 ng/mL

**Q.** And the “Cmax, Tumor” value [3, 6]?
**A.** 1550 ng/mL

**Q.** What about the “Tmax, Plasma” value [3, 6] of the same substance?
**A.** *2.00 h

**Q.** What about the “Tmax, Tumor” value [3, 6] of the same substance?
**A.** 480 min

**Q.** And the “t½, Plasma” value [3, 6]?
**A.** 756 min

**Q.** And the “t½, Tumor” value [3, 6]?
**A.** 1460 min

**Q.** What about the “fold extended t1/2 compared to aldesleukin” value ([4]; 0.3 mg/kg IV) of the same substance?
**A.** 23 fold

**Q.** What about the “fold reduced CL compared to aldesleukin” value ([4]; 0.3 mg/kg IV) of the same substance?
**A.** about 198 fold

**Q.** And the AUC0-t [4, 7]?
**A.** 45,600 h*ng/mL

**Q.** What about the AUCINF [4, 7] of the same substance?
**A.** 45,600 h*ng/mL

**Q.** What about the CL [4, 7] of the same substance?
**A.** 6.58 mL/h/kg

**Q.** What about the Cmax [4, 7] of the same substance?
**A.** 4,870 ng/mL

**Q.** What about the Tmax [4, 7] of the same substance?
**A.** 1.8 min

**Q.** What about the “Vss (distribution volume)” value [4, 7] of the same substance?
**A.** 0.0824 L/kg

**Q.** And the t½ [4, 7]?
**A.** 798 min

**Q.** What about the “mean plasma concentrations measurable out to (post-dose)” value ([4]; single IV bolus, 120 h = last measured time point) of the same substance?
**A.** 120 h

**Q.** What about the “systemic levels of IFNγ” value [5] of the same substance?
**A.** transient elevation
